Assay results reported in article PMC12090727, “Cell binding, uptake, and infection of influenza A virus using recombinant antibody-based receptors” (Journal of Virology, 2025).

Key:
[1] = biological target: T1, hemagglutinin (HA) of A/Netherlands/602/2009 (pH1N1), on virions (Influenza A virus …, UniProt C3PSV2); test: flow cytometry on cells; conditions: partners not purified
T1 construct: also called A/Netherlands/602/09; A/Neth/09

[2] = biological target: T2, HA-hFc probe: H1N1 A/California/04/2009 HA ectodomain fused to human IgG1 Fc (Influenza A virus A/California/04/2009 …, UniProt C3W5S1); test: flow cytometry on cells; conditions: one partner purified
T2 construct: also called HA-probe; HA-human Fc probe; source: High Five insect cells (recombinant baculovirus), purified (HiTrap Protein G); not shown: Fc (human IgG1), C-terminal, kept

| Binder | binding result [1] | binding result [2] |
| --- | --- | --- |
| fTfR-5J8 chimeric antibody-based receptor, stably expressed on A549 Slc35A1 KO cells (scFv, V domains shown, also called LV-fTfR-5J8; LV-5J8-TfR) VH: EVQLVESGPGLVKPSDILSLTCAVSGYSISSNYYWGWIRQPPGKGLEWIGSIYHSGSTYYKPSLESRLGISVDTSKNQFSLKLSFVSAADTAVYYCARHVRSGYPDTAYYFDKWGQGTLVTVSS VL: SYVLTQPPSVSVAPGETARISCGGNNIGTKVLHWYQQTPGQAPVLVVYDDSDRPSGIPERFSGSNSGNTATLTISRVEVGDEADYYCQVWDISTDQAVFGGGTKLTVL | binds | – |
| Flag-tagged fTfR-5J8 receptor, WT (Flag+) (scFv, V domains shown, also called WT receptor) VH: EVQLVESGPGLVKPSDILSLTCAVSGYSISSNYYWGWIRQPPGKGLEWIGSIYHSGSTYYKPSLESRLGISVDTSKNQFSLKLSFVSAADTAVYYCARHVRSGYPDTAYYFDKWGQGTLVTVSS VL: SYVLTQPPSVSVAPGETARISCGGNNIGTKVLHWYQQTPGQAPVLVVYDDSDRPSGIPERFSGSNSGNTATLTISRVEVGDEADYYCQVWDISTDQAVFGGGTKLTVL | – | binds |
